Measured values as given in patent US8778635B2, “Thermostable proteins and methods making and using thereof” (Becton, Dickinson and Company, priority 2006, dated 2014).

How the values were obtained:
[1] = Circular dichroism melting temperature (Tm), CD signal at 222 nm versus temperature; type: physicochemical
Procedure: Circular Dichroism (CD) spectra were preformed on a JASCO J-810. Samples of purified fluorophore-labeled proteins were exhaustively dialyzed into phosphate buffered saline (PBS) (comprised of 137 mM NaCl, 10 mM phosphate and 2.7 mM KCl, pH 7.4). The loss of secondary structure of 3M-GGBP and W183C-GGBP was observed by recording the CD signal at 222 nm as a function of temperature. During the experiment, the temperature of the sample changed at a rate of ˜1° C./min between 20 and 80° C. The apparent melting temperature at the midpoint of the transition (Tm) was obtained by fitting the experimental data points (CD signal versus temperature) with a sigmoidal function.

[2] = Fluorescence assay of glucose binding (glucose titration, Kd and fluorescence response)
Procedure: Dye-protein fluorophore (N,N′-dimethyl-N-(iodoacetyl)-N′-(7-nitrobenz-2-oxa-1,3-diazol-4-yl)ethylenediamine designated IANBD) or acrylodan coupling was performed as described by the manufacturer (Molecular Probes).
Briefly, 0.5 ml of 3M-GGBP (1-2 mg/ml) was treated with 2.5 molar excess of dithiothreitol for 30 min. A10-fold molar excess solution of IANBD in DMSO (0.5 mg/100 uL) was then added. While protected from light, the protein and dye were gently mixed for 4 h at 25° C. before the unreacted dye was removed by Nap-5 column chromatography (Amersham Biosciences).
Binding constants were determined by titration of increasing concentrations of glucose into a 0.1 μM protein in PBS and monitoring the change in fluorescence. The Kd was determined from the following relationships as adapted from Pisarchick and Thompson (Pisarchick, M. L. and Thompson, N. L. Biophys. J. (1990), 58, 1235-1249):
[formula] where F is fluorescence intensity, Finf is fluorescence at infinity, F0 is fluorescence at zero
[formula] where [Glc]free is the concentration of free glucose and [Glc]tot and [Prot]tot are the total concentrations of glucose and protein, respectively. For the SM4, the ratio of the area under the fluorescence curve from 514-540 nm to the area under the curve at 450-470 nm was used in place of fluorescence intensity in the equations above. […]

[3] = Storage stability of purified / labeled protein; type: physicochemical; conditions: acrylodan-labeled
Procedure: The modified GGBP were expressed from E. coli strain Sg13009 following standard protocols (Qiagen). After induction, bacteria were lysed using Bugbuster protein extraction reagent (Novagen) and purified by IMAC using Talon cobalt^2+ resin (Clontech). The purified protein in solution was filtered through 100 kDa cutoff filter and then concentrated using a 10 kDa cutoff filter (Millipore). The protein (1-2 mg/ml) was dialyzed at 4° C. into a solution containing 1M NaCl, 10 mM Tris-HCl, and 50 mM NaPO4 (pH 8) and stored at 4° C. Under these conditions the protein was active for at least six months. The yield from the purification was approximately 10 mg/l.
After labeling with acrylodan the SM4 was transferred to a buffer for frozen storage. The protein was dialyzed against a solution of 0.01M MES, 30 mM glucose (pH 5.5-5.7) for 24 h with three changes of buffer. After dialysis the protein was quantified and diluted to a 100 μM solution using the same buffer. The vials were then placed directly into a −70° C. freezer for storage. The protein is stable for at least 3 months under these conditions.
To lyophilize the SM4 protein, the protein solution was dialyzed against ammonium bicarbonate (50 mM, pH 7) for 24 h with three changes of buffer. The protein was passed through a 0.2 um Supor filter (Pall) and was aliquoted into amber vials (2 mg/vial). […]

Row | Kd ([2]; glucose titrated into 0.1 μM protein in PBS) [%] | Fluorescent Response ([2]; glucose, labeled protein) [%] | Molecule | Tm* ([1]; Tm determined in PBS, fluorophore-labeled protein) [%] | Tm greater than that of the reference protein (W183C) ([1]; FIG. 1, protocol of Example 2) | melting temperature ([1]; without the termini additions present, in PBS) | time the protein is stable, frozen storage ([3]; 100 μM in 0.01M MES, 30 mM glucose (pH 5.5-5.7), −70° C.) | time the protein is stable, lyophilized ([3]; lyophilized from ammonium bicarbonate (50 mM, pH 7))
1 | 19.6 ± 10 | 3.4 ± 8 | W183C-acrylodan: reference W183C-GGBP labeled with acrylodan | 39.8 ± 2 | – | – | – | –
2 | – | – | W183C(1, 3, 5, 10): W183C (SEQ ID NO:4) with N39I, G82E, Q83K, N84D, Q175E, Q177H, L178M, N259E and N260S (protein) ADTRIGVTIYKYDDNFMSVVRKAIEQDAKAAPDVQLLMIDSQNDQSKQNDQIDVLLAKGVKALAINLVDPAAAGTVIEKAREKDVPVVFFNKEPSRKALDSYDKAYYVGTDSKESGIIQGDLIAKHWAANQGWDLNKDGQIQFVLLKGEPGHPDAEARTTYVIKELNDKGIKTEELHMDTAMCDTAQAKDKMDAWLSGPNANKIEVVIANNDAMAMGAVEALKAHNKSSIPVFGVDALPEALALVKSGALAGTVLNDAESQAKATFDLAKNLADGKGAADGTNWKIDNKVVRVPYVGVDKDNLAEFSKK | – | about 9.4 °C | about 55.4 °C | at least 3 months | at least 6 months
